pyrene = pyrene fluorescent label
Tests used:
[1] = Circular dichroism secondary structure calculation; format: physicochemical; details: circular dichroism in 30% TFE/Tris, CDPRO deconvolution
Aβ plaques [2] = target: T1, Aβ plaques (Homo sapiens, UniProt P05067)
Aβ40 = Aβ40 (Homo sapiens, UniProt P05067); assay: Pyrene-labeled peptide probe fluorescence with structural forms of Aβ40; format: binding
Source text: (§1) A peptide probe specific for Aβ (SEQ ID NO:36) is used to detect specific structural forms of Aβ40 and Aβ42. The peptide probe is labeled at each terminus with pyrene. The peptide probe is contacted with different samples comprising Aβ42 oligomers, Aβ40 oligomers, and Aβ40 monomers.
(§2) Interaction between the peptide probe and sample is detected by excitation at 350 nm and scanning fluorescence from 360 to 600 nm. […] FIG. 11A (fibers and monomer) & 11B (oligomers).

[3] = system: Aβ40 and Aβ42 in human cerebrospinal fluid (CSF); assay: Detection of Aβ in human CSF samples (excimer/monomer fluorescence ratio); format: binding; details: 40 μL CSF, 2 μM dipyrene-labeled probe, 1 hour; ratio 430-530 nm over 370-385 nm
Source text: A peptide probe specific for Aβ (SEQ ID NO:36) is used to detect Aβ40 and Aβ42 in samples of human cerebrospinal fluid (CSF) obtained from Alzheimer's patients and from age-matched healthy patients. […] The data is presented in FIG. 12 as the ratio of the […] region (430-530 nm) over the monomeric region (370-385 nm). […] FIG. 12A presents the data for each patient, while FIG. 12B presents the average data for each patient group.

Aβ42 = Aβ42 (Homo sapiens, UniProt P05067); assay: Pyrene-labeled peptide probe fluorescence with structural forms of Aβ42; format: binding
Source text: as §1, §2

Aβ plaques [4] = target: T1, Aβ plaques; assay: In vitro staining of brain sections from hAPP751SL transgenic mice; format: binding
Protocol: The following illustrates the ability of peptide probes to target Aβ plaques (e.g., insoluble self-aggregates of Aβ protein associated with Alzheimer's disease) both in vitro and in vivo. A peptide probe specific for Aβ (SEQ ID NO:36) and labeled at each terminus with pyrene is used.
In vitro studies are carried out on brain sections from transgenic mice over-expressing human APP751 with London and Swedish mutations (hAPP751SL). This protein is an Aβ mutant that forms neuritic plaques in the transgenic mice. Tissue from non-transgenic littermate mice served as control tissue.
Two different types of tissue slices are evaluated: cyro-cut (frozen and sliced) and paraffin embedded and sliced. The peptide probe is incubated on the brain slices and binding of the peptide probe to the brain, and to the amyloid deposits/plaques in particular, are qualitatively evaluated. For reference purposes, consecutive slices are immunohistochemically stained with an anti-Aβ antibody, the 6E10 antibody or Thioflavin S. The use of anti-Aβ controls confirms the specificity of the staining on neuritic plaques.
Images are recorded on a Nikon E800 microscope with a mounted PixelFly camera. For tiled image recordings, the microscope is equipped with a StagePro software controlled automatic table. Images of peptide probe staining and antibody and ThioflavinS staining, respectively, are overlaid in Adobe Photo Shop software
In the latter samples, cells from the neuronal layer of the hippocampus are marked, as are brain tissue around plaques in the cortex. Thus, the quality of the stain may be better on paraffin sections.

[5] = system: Aβ40 and Aβ42 in human serum; assay: Detection of Aβ in human serum with immobilized biotinylated peptide probe; format: binding; details: 200 μL serum; biotinylated probe on streptavidin magnetic beads, then 2 μM dipyrene-labeled probe 3-5 hours
Protocol: Biotinylated peptide probe is immobilized to Dynal magnetic beads coated with streptavidin. These beads are incubated directly with the serum samples for 1 hour, then the magnetic beads and the captured material are pulled down to remove the serum samples.

PrP^Sc [6] = target: T2, PrP^Sc (Mesocricetus auratus, UniProt P04273)
PrP^Sc [7] = target: T3, PrP^Sc (Ovis aries, UniProt P23907)
PrP^Sc [8] = target: T3, PrP^Sc; remark: listed apart in the source
PrP^Sc [9] = target: T2, PrP^Sc; remark: listed apart in the source
[10] = intranasal labeled peptide probe
[11] = general statement in description
[12] = probe labeled at each terminus with pyrene, excitation 350 nm, scan 360 to 600 nm

Sequence of Aβ40 (P05067 672-711): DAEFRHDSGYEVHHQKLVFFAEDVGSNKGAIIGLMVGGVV
Sequence of Aβ42 (P05067 672-713): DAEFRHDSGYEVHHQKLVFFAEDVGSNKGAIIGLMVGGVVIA
T1 sequence (P05067 672-713 limits assumed): as the sequence (P05067 672-713) above
T3 sequence (P23907 25-233 limits assumed): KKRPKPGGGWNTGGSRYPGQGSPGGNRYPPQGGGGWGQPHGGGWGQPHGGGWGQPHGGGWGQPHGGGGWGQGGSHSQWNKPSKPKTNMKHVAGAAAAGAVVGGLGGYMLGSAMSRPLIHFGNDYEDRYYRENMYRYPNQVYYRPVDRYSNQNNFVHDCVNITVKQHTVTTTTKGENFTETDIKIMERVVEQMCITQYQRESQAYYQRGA
T2 sequence (P04273 23-231 limits assumed): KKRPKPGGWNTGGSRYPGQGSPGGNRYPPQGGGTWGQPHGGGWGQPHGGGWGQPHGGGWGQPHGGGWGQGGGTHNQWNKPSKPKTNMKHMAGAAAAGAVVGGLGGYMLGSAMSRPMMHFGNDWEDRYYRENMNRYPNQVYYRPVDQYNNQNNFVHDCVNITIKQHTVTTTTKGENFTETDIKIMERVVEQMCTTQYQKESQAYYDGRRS

With “Aβ40 fibers: fibers of Aβ40 amyloid beta protein used as sample” the turn/unordered structure [1] was 35.9%, the α helix structure [1] was 5.6% and the “β strand (sheet) structure” value [1] was 58.4%.
For “KLVFFAEDVGSNKGAIIGLM [SEQ ID NO:36, peptide probe specific for Aβ: Aβ 17-35 with additional N-terminal lysine]”, the turn/unordered structure [1] was 55.5%, the α helix structure [1] was 19.4% and the “β strand (sheet) structure” value [1] was 25.1%. The “binding in brain of hAPP751SL transgenic mice” value (Aβ plaques [2]; [10]) was “binds to the amyloid and agglomerates outside the blood vessel in the brain”, the “distribution and binding in brain of nontransgenic mice” value (Aβ plaques [2]; [10]) was “reaches the olfactory bulb, but does not bind to a specifiable morphological structure” and the “crossing of the blood-brain barrier (BBB)” value (Aβ plaques [2]; mouse, in vivo) was “crosses the blood-brain barrier”. For the same substance, the “specific reaction with Aβ40 monomers” value (Aβ40; [11]) was “do not specifically react”, the “specific reaction with Aβ40 oligomers” value (Aβ40; [11]) was “specifically react” and the “dose-dependent reaction with Aβ40 fibers” value (Aβ40; [12]) was “reacts”. The “dose-dependent reaction with Aβ40 monomer” value (Aβ40; [12]) was “dose not react”, the “dose-dependent reaction with Aβ40 oligomers” value (Aβ40; [12]) was “reacts” and the “stratification of Alzheimer's patients from age-matched healthy patients” value [3] was “able to stratify”. The “specific reaction with Aβ42 monomers” value (Aβ42; [11]) was “do not specifically react”, the “specific reaction with Aβ42 oligomers” value (Aβ42; [11]) was “specifically react” and the “dose-dependent reaction with Aβ42 fibers” value (Aβ42; [12]) was “reacts”. The “dose-dependent reaction with Aβ42 oligomers” value (Aβ42; [12]) was “reacts”, the “staining of human amyloid peptide bearing blood vessels” value (Aβ plaques [4]; hAPP751SL transgenic brain slices) was “specifically stained” and the “plaque specificity of staining, paraffin versus cryo-cut slices” value (Aβ plaques [4]; overlay with antibody staining of consecutive slices) was “staining on paraffin slices is more specific to plaques than staining on cryo-cut slices”. For the same substance, the “staining of plaques on brain slices” value (Aβ plaques [4]; paraffin or cryo-cut slices, dipyrene-labeled probe) was “plaque-specific staining is apparent” and the “stratification of Alzheimer's patients from age-matched healthy patients” value [5] was “able to stratify”.
In the case of “Aβ42 fibers: fibers of Aβ42 amyloid beta protein used as sample”, the turn/unordered structure [1] was 27.2%, the α helix structure [1] was 12.6% and the “β strand (sheet) structure” value [1] was 60.2%.
In the case of “VVAGAAAAGAVHKMNTKPKMKHVAGAAAAGAVV [SEQ ID NO:43]”, the “reactivity with smaller versus larger PrP^Sc aggregates” value (PrP^Sc [6]) was “reacts with smaller PrP^Sc aggregates over larger PrP^Sc aggregates”, the “effect of sample sonication on signal-to-noise” value (PrP^Sc [7]) was “improved the signal-to-noise ration” and the “reactivity with PrP^Sc in sera from infected sheep” value (PrP^Sc [7]) was “reacted”. The “reactivity with sera from normal sheep” value (PrP^Sc [7]) was “did not react”, the sensitivity (PrP^Sc [7]) was 100% and the specificity (PrP^Sc [7]) was 100%. For the same substance, the “relative reactivity with sheep blood components” value (PrP^Sc [8]) was “buffy coat>serum>plasma” and the “reactivity after sonication of samples” value (PrP^Sc [9]) was “increased reactivity”.
In the case of “oligomers of Aβ42: sample of oligomers of Aβ42 including dimers, trimers, tetramers, hexamers and 12-mers”, the turn/unordered structure [1] was 45.4% and the “β strand (sheet) structure” value [1] was 52.7%.
In the case of “labeled peptide probe: peptide probe specific for Aβ (SEQ ID NO:36) labeled at each terminus with pyrene (pyrene-KLVFFAEDVGSNKGAIIGLM-pyrene)”, the turn/unordered structure [1] was 54.1%, the α helix structure [1] was 18.3% and the “β strand (sheet) structure” value [1] was 27.6%.

Source: US8673579B2, “Peptide probes for diagnostics and therapeutics” (priority 2006, dated 2014)
